Measured values: the supplement of paper PMC11780869

system: Bacillus subtilis; experiment: cleaved RNA product abundance (RNA/gDNA barcode ratio) relative to median wild-type variant (ratio to wild type); higher = more accumulation of the downstream cleavage product; details: experiment (reporter, strain, medium): exp 8a: truncated aprE reporter, strain BJT201 with 2% xylose (RNase J1 expressed); cleavage site: glnRA (positions -5 to +31 mutated)
Outline: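 Cleaved product abundance for each construct is its RNA-to-gDNA barcode ratio, scaled to the median construct carrying the unmutated site. Cleaved RNA was isolated on a gel, reverse transcribed and barcode-sequenced, with genomic DNA barcodes sequenced alongside and UMIs collapsed. The reporters were truncated aprE or tetM mRNAs with barcoded, mutagenized RNase Y cleavage-site windows integrated into the B. subtilis chromosome, and cultures grew in LB at 37°C from OD600 0.0003 to 0.3.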

**Q.** With “CGACATGTCCCGCTTCTTTCATTAATCCGTTAGCAAATGTTTTGCTATATAAATTTACCTTTTAAGAGGAGGAAT” as the sequence, how does the “cleaved RNA product abundance” value read?
**A.** 0.499

**Q.** With “CGACATGTCCCGCTTCTTTCATTAATCCGTTAGCAAATGTTTTGCTATATACAATTACCTTTTAAGAGGAGGAAT” as the sequence, how does the “cleaved RNA product abundance” value read?
**A.** 1.76

**Q.** “CGACATGTCCCGCTTCTTTCATTAATCCGTTAGCAAATGTTTTGCTATATACATTAACCTTTTAAGAGGAGGAAT” was tested. Which “cleaved RNA product abundance” value did it give?
**A.** 1.13

**Q.** How did the “cleaved RNA product abundance” value turn out when “CGACATGTCCCGCTTCTTTCATTAATCCGTTAGCAAATGTTTTGCTATATACATTCACCTTTTAAGAGGAGGAAT” was run?
**A.** 1.09

**Q.** “CGACATGTCCCGCTTCTTTCATTAATCCGTTAGCAAATGTTTTGCTATATACATTTAAATTTTAAGAGGAGGAAT” was tested. Which “cleaved RNA product abundance” value did it give?
**A.** 0.806

**Q.** For “CGACATGTCCCGCTTCTTTCATTAATCCGTTAGCAAATGTTTTGCTATATACATTTAACTTTTAAGAGGAGGAAT”, which “cleaved RNA product abundance” value is on record?
**A.** 1.03

**Q.** With “CGACATGTCCCGCTTCTTTCATTAATCCGTTAGCAAATGTTTTGCTATATACATTTACATTTTAAGAGGAGGAAT” as the sequence, how does the “cleaved RNA product abundance” value read?
**A.** 1.23

**Q.** Which “cleaved RNA product abundance” value does the source give for “CGACATGTCCCGCTTCTTTCATTAATCCGTTAGCAAATGTTTTGCTATATACATTTACCATTTAAGAGGAGGAAT” here?
**A.** 1.4

**Q.** “CGACATGTCCCGCTTCTTTCATTAATCCGTTAGCAAATGTTTTGCTATATACATTTACCCTTTAAGAGGAGGAAT” was tested. Which “cleaved RNA product abundance” value did it give?
**A.** 0.852

**Q.** Which “cleaved RNA product abundance” value does the source give for “CGACATGTCCCGCTTCTTTCATTAATCCGTTAGCAAATGTTTTGCTATATACATTTACCTTTTAAGAGGAGGAAT” here?
**A.** 1.17

**Q.** Which “cleaved RNA product abundance” value does the source give for “CGACATGTCCCGCTTCTTTCATTAATCCGTTAGCAAATGTTTTGCTATATACATTTACTTTTTAAGAGGAGGAAT” here?
**A.** 1.2

**Q.** How did the “cleaved RNA product abundance” value turn out when “CGACATGTCCCGCTTCTTTCATTAATCCGTTAGCAAATGTTTTGCTATATACATTTTCCTTTTAAGAGGAGGAAT” was run?
**A.** 0.6

**Q.** “CGACATGTCCCGCTTCTTTCATTAATCCGTTAGCAAATGTTTTGCTATATACTTTTACCTTTTAAGAGGAGGAAT” was tested. Which “cleaved RNA product abundance” value did it give?
**A.** 1.13

**Q.** With “CGACATGTCCCGCTTCTTTCATTAATCCGTTAGCAAATGTTTTGCTTTATACATTTACCTTTTAAGAGGAGGAAT” as the sequence, how does the “cleaved RNA product abundance” value read?
**A.** 0.298

**Q.** For “CGACATGTCCCGCTTCTTTCATTAATCCGTTAGCAAATGTTTTGTTATATACATTTACCTTTTAAGAGGAGGAAT”, which “cleaved RNA product abundance” value is on record?
**A.** 0.554

**Q.** How did the “cleaved RNA product abundance” value turn out when “CGACATGTCCCGCTTCTTTCATTAATCCGTTAGCAAATGTTTTTCTATATACATTTACCTTTTAAGAGGAGGAAT” was run?
**A.** 0.753

**Q.** For “CGACATGTCCCGCTTCTTTCATTAATCCGTTAGCAAATTTTTTGCTATATACATTTACCTTTTAAGAGGAGGAAT”, which “cleaved RNA product abundance” value is on record?
**A.** 1.19

**Q.** How did the “cleaved RNA product abundance” value turn out when “CGACATGTCCCGCTTCTTTCATTAATCCGTTAGCAACAATTTTGCTATATACATTTACCTTTTAAGAGGAGGAAT” was run?
**A.** 1.04

**Q.** How did the “cleaved RNA product abundance” value turn out when “CGACATGTCCCGCTTCTTTCATTAATCCGTTAGCAACAGATTTGCTATATACATTTACCTTTTAAGAGGAGGAAT” was run?
**A.** 0.68

**Q.** Which “cleaved RNA product abundance” value does the source give for “CGACATGTCCCGCTTCTTTCATTAATCCGTTAGCAACAGGTTTGCTATATACATTTACCTTTTAAGAGGAGGAAT” here?
**A.** 0.389

**Q.** “CGACATGTCCCGCTTCTTTCATTAATCCGTTAGCAACAGTTTTACTATATACATTTACCTTTTAAGAGGAGGAAT” was tested. Which “cleaved RNA product abundance” value did it give?
**A.** 0.561

**Q.** With “CGACATGTCCCGCTTCTTTCATTAATCCGTTAGCAACAGTTTTGATATATACATTTACCTTTTAAGAGGAGGAAT” as the sequence, how does the “cleaved RNA product abundance” value read?
**A.** 0.429

**Q.** “CGACATGTCCCGCTTCTTTCATTAATCCGTTAGCAACAGTTTTGCTATACACATTTACCTTTTAAGAGGAGGAAT” was tested. Which “cleaved RNA product abundance” value did it give?
**A.** 0.557

**Q.** For “CGACATGTCCCGCTTCTTTCATTAATCCGTTAGCAACAGTTTTGCTATATAAATTTACCTTTTAAGAGGAGGAAT”, which “cleaved RNA product abundance” value is on record?
**A.** 0.69

**Q.** Which “cleaved RNA product abundance” value does the source give for “CGACATGTCCCGCTTCTTTCATTAATCCGTTAGCAACAGTTTTGCTATATACAATTACCTTTTAAGAGGAGGAAT” here?
**A.** 0.601

**Q.** “CGACATGTCCCGCTTCTTTCATTAATCCGTTAGCAACAGTTTTGCTATATACATATACCTTTTAAGAGGAGGAAT” was tested. Which “cleaved RNA product abundance” value did it give?
**A.** 1.16

**Q.** With “CGACATGTCCCGCTTCTTTCATTAATCCGTTAGCAACAGTTTTGCTATATACATTTAACTTTTAAGAGGAGGAAT” as the sequence, how does the “cleaved RNA product abundance” value read?
**A.** 0.916

**Q.** Which “cleaved RNA product abundance” value does the source give for “CGACATGTCCCGCTTCTTTCATTAATCCGTTAGCAACAGTTTTGCTATATACATTTACCATTTAAGAGGAGGAAT” here?
**A.** 0.522

**Q.** “CGACATGTCCCGCTTCTTTCATTAATCCGTTAGCAACAGTTTTGCTATATACATTTACCTTTTAAGAGGAGGAAT” was tested. Which “cleaved RNA product abundance” value did it give?
**A.** 0.814

**Q.** For “CGACATGTCCCGCTTCTTTCATTAATCCGTTAGCAACAGTTTTGCTATATACATTTACGTTTTAAGAGGAGGAAT”, which “cleaved RNA product abundance” value is on record?
**A.** 2.01

**Q.** “CGACATGTCCCGCTTCTTTCATTAATCCGTTAGCAACAGTTTTGCTATATACATTTACTTTTTAAGAGGAGGAAT” was tested. Which “cleaved RNA product abundance” value did it give?
**A.** 1.18

**Q.** Which “cleaved RNA product abundance” value does the source give for “CGACATGTCCCGCTTCTTTCATTAATCCGTTAGCAACAGTTTTGCTATATACATTTAGCTTTTAAGAGGAGGAAT” here?
**A.** 0.489

**Q.** How did the “cleaved RNA product abundance” value turn out when “CGACATGTCCCGCTTCTTTCATTAATCCGTTAGCAACAGTTTTGCTATATACATTTTCCTTTTAAGAGGAGGAAT” was run?
**A.** 0.423

**Q.** “CGACATGTCCCGCTTCTTTCATTAATCCGTTAGCAACAGTTTTGCTATATATATTTACCTTTTAAGAGGAGGAAT” was tested. Which “cleaved RNA product abundance” value did it give?
**A.** 0.588

**Q.** Which “cleaved RNA product abundance” value does the source give for “CGACATGTCCCGCTTCTTTCATTAATCCGTTAGCAACAGTTTTTCTATATACATTTACCTTTTAAGAGGAGGAAT” here?
**A.** 0.345

**Q.** Which “cleaved RNA product abundance” value does the source give for “CGACATGTCCCGCTTCTTTCATTAATCCGTTAGCAACATTTTTGCTATATACATTTACCTTTTAAGAGGAGGAAT” here?
**A.** 1.12

**Q.** With “CGACATGTCCCGCTTCTTTCATTAATCCGTTAGCAACCCTTTTGCTATATACATTTACCTTTTAAGAGGAGGAAT” as the sequence, how does the “cleaved RNA product abundance” value read?
**A.** 0.451

**Q.** Which “cleaved RNA product abundance” value does the source give for “CGACATGTCCCGCTTCTTTCATTAATCCGTTAGCAACCGTGTTACTATATAAATTTACCTTTTAAGAGGAGGAAT” here?
**A.** 0.271

**Q.** Which “cleaved RNA product abundance” value does the source give for “CGACATGTCCCGCTTCTTTCATTAATCCGTTAGCAACCGTTATGCTATATACATTTACCTTTTAAGAGGAGGAAT” here?
**A.** 0.316

**Q.** Which “cleaved RNA product abundance” value does the source give for “CGACATGTCCCGCTTCTTTCATTAATCCGTTAGCAACCGTTTTGCAATATACATTTACCTTTTAAGAGGAGGAAT” here?
**A.** 0.344

**Q.** “CGACATGTCCCGCTTCTTTCATTAATCCGTTAGCAACCGTTTTGCTAAATACATTTACCTTTTAAGAGGAGGAAT” was tested. Which “cleaved RNA product abundance” value did it give?
**A.** 0.432

**Q.** With “CGACATGTCCCGCTTCTTTCATTAATCCGTTAGCAACCGTTTTGCTATATACATTTACATTTTAAGAGGAGGAAT” as the sequence, how does the “cleaved RNA product abundance” value read?
**A.** 0.523

**Q.** How did the “cleaved RNA product abundance” value turn out when “CGACATGTCCCGCTTCTTTCATTAATCCGTTAGCAACCGTTTTGCTATATACATTTACCTTTTAAGAGGAGGAAT” was run?
**A.** 0.617

**Q.** For “CGACATGTCCCGCTTCTTTCATTAATCCGTTAGCAACCGTTTTGCTTTATACATTTACCTTTTAAGAGGAGGAAT”, which “cleaved RNA product abundance” value is on record?
**A.** 0.145

**Q.** How did the “cleaved RNA product abundance” value turn out when “CGACATGTCCCGCTTCTTTCATTAATCCGTTAGCAACCGTTTTGGTATATACATTTACCTTTTAAGAGGAGGAAT” was run?
**A.** 0.187

**Q.** Which “cleaved RNA product abundance” value does the source give for “CGACATGTCCCGCTTCTTTCATTAATCCGTTAGCAACCGTTTTTCTATATACATTTACCTTTTAAGAGGAGGAAT” here?
**A.** 0.384

**Q.** With “CGACATGTCCCGCTTCTTTCATTAATCCGTTAGCAACCTTTTTGCTATATACATTTACCTTTTAAGAGGAGGAAT” as the sequence, how does the “cleaved RNA product abundance” value read?
**A.** 1.44

**Q.** With “CGACATGTCCCGCTTCTTTCATTAATCCGTTAGCAACGGTTGTGCTATATACATTTACCTTTTAAGAGGAGGAAT” as the sequence, how does the “cleaved RNA product abundance” value read?
**A.** 0.353

**Q.** For “CGACATGTCCCGCTTCTTTCATTAATCCGTTAGCAACGGTTTTACTATATACATTTACCTTTTAAGAGGAGGAAT”, which “cleaved RNA product abundance” value is on record?
**A.** 0.495

**Q.** Which “cleaved RNA product abundance” value does the source give for “CGACATGTCCCGCTTCTTTCATTAATCCGTTAGCAACGGTTTTGATATATACATTTACCTTTTAAGAGGAGGAAT” here?
**A.** 0.515
